Measured values as given in paper PMC4106346, “The Oligomeric States of the Purified Sigma-1 Receptor Are Stabilized by Ligands*” (The Journal of Biological Chemistry, 2014).

Assays:
[1] = biological target: the molecule itself; assay: SEC; analytical size exclusion chromatography, Yarra SEC-3000, 10 mM HEPES pH 7.2, 150 mM NaCl, 0.3 mM TCEP, 0.018% DDM, column at 20 °C; self-association in protein-detergent micelles
[2] = biological target: the molecule itself; assay: SEC-MALS; isolated peak 1 (largest oligomer) of MBP-4A-S1R; Superdex S200, 150 mM NaCl, 5 mM HEPES pH 7.2, 0.018% DDM
[3] = biological target: the molecule itself; assay: SEC-MALS; isolated intermediate oligomer (peak *) of MBP-4A-S1R; Superdex S200, 150 mM NaCl, 5 mM HEPES pH 7.2, 0.018% DDM
[4] = biological target: the molecule itself; assay: cross-linking; DSS (150 or 250 μM) on 5 μM isolated peak 1 (oligomer) of MBP-4A-S1R, 2 h at room temperature, with or without 10 μM BD-1047; SDS-PAGE

Protein | stoichiometry N [1] | binding result [1] | also measured
G91I MBP-4A-S1R (receptor, guinea pig, UniProt Q60492 1-223, looked up, sigma-1 receptor (S1R), guinea pig, 223 amino acids, as m1 with G91I; also called G91I mutation; not shown: MBP with 4-Ala linker, N-terminal, kept) MQWAVGRRWLWVALFLAAVAVLTQIVWLWLGTQNFVFQREEIAQLARQYAGLDHELAFSKLIVELRRLHPVHVLPDEELQWVFVNAGGWMIAMCLLHASLSEYVLLFGTALGSPRHSGRYWAEISDTIISGTFHQWREGTTKSEVFYPGETVVHGPGEATAVEWGPNTWMVEYGRGVIPSTLGFALADTVFSTQDFLTLFYTLRVYARALQLELTTYLFGQDP | ~2 | – | –
G88I MBP-4A-S1R (receptor, guinea pig, UniProt Q60492 1-223, looked up, sigma-1 receptor (S1R), guinea pig, 223 amino acids, as m1 with G88I; Named only as one of the substitutions of Ile or Leu at Gly-87, Gly-88 and Gly-91; also called substitution of Ile at Gly-88; not shown: MBP with 4-Ala linker, N-terminal, kept) MQWAVGRRWLWVALFLAAVAVLTQIVWLWLGTQNFVFQREEIAQLARQYAGLDHELAFSKLIVELRRLHPVHVLPDEELQWVFVNAGIWMGAMCLLHASLSEYVLLFGTALGSPRHSGRYWAEISDTIISGTFHQWREGTTKSEVFYPGETVVHGPGEATAVEWGPNTWMVEYGRGVIPSTLGFALADTVFSTQDFLTLFYTLRVYARALQLELTTYLFGQDP | – | binds | –
MBP-4A-S1R (guinea pig sigma-1 receptor fused to maltose-binding protein through a 4-Ala linker) (receptor, UniProt Q60492 1-223, looked up, sigma-1 receptor (S1R), guinea pig, 223 amino acids; In detergent micelles (DDM); One preparation separates into a 6-8-mer, a tetramer and a monomer; also called nonmutated receptor; nonmutated fusion protein; source: preparative size exclusion chromatography; not shown: MBP with 4-Ala linker, N-terminal, kept) MQWAVGRRWLWVALFLAAVAVLTQIVWLWLGTQNFVFQREEIAQLARQYAGLDHELAFSKLIVELRRLHPVHVLPDEELQWVFVNAGGWMGAMCLLHASLSEYVLLFGTALGSPRHSGRYWAEISDTIISGTFHQWREGTTKSEVFYPGETVVHGPGEATAVEWGPNTWMVEYGRGVIPSTLGFALADTVFSTQDFLTLFYTLRVYARALQLELTTYLFGQDP | – | – | stoichiometry N [2]: 6 to 8; stoichiometry N [3]: 4; stoichiometry N [4]: > 4
G91L MBP-4A-S1R (receptor, guinea pig, UniProt Q60492 1-223, looked up, sigma-1 receptor (S1R), guinea pig, 223 amino acids, as m1 with G91L; also called G91L mutation; not shown: MBP with 4-Ala linker, N-terminal, kept) MQWAVGRRWLWVALFLAAVAVLTQIVWLWLGTQNFVFQREEIAQLARQYAGLDHELAFSKLIVELRRLHPVHVLPDEELQWVFVNAGGWMLAMCLLHASLSEYVLLFGTALGSPRHSGRYWAEISDTIISGTFHQWREGTTKSEVFYPGETVVHGPGEATAVEWGPNTWMVEYGRGVIPSTLGFALADTVFSTQDFLTLFYTLRVYARALQLELTTYLFGQDP | ~4 | – | –
G88L MBP-4A-S1R (receptor, guinea pig, UniProt Q60492 1-223, looked up, sigma-1 receptor (S1R), guinea pig, 223 amino acids, as m1 with G88L; Named only as one of the substitutions of Ile or Leu at Gly-87, Gly-88 and Gly-91; also called substitution of Leu at Gly-88; not shown: MBP with 4-Ala linker, N-terminal, kept) MQWAVGRRWLWVALFLAAVAVLTQIVWLWLGTQNFVFQREEIAQLARQYAGLDHELAFSKLIVELRRLHPVHVLPDEELQWVFVNAGLWMGAMCLLHASLSEYVLLFGTALGSPRHSGRYWAEISDTIISGTFHQWREGTTKSEVFYPGETVVHGPGEATAVEWGPNTWMVEYGRGVIPSTLGFALADTVFSTQDFLTLFYTLRVYARALQLELTTYLFGQDP | – | binds | –
H97A MBP-4A-S1R (receptor, guinea pig, UniProt Q60492 1-223, looked up, sigma-1 receptor (S1R), guinea pig, 223 amino acids, as m1 with H97A; also called mutation H97A; not shown: MBP with 4-Ala linker, N-terminal, kept) MQWAVGRRWLWVALFLAAVAVLTQIVWLWLGTQNFVFQREEIAQLARQYAGLDHELAFSKLIVELRRLHPVHVLPDEELQWVFVNAGGWMGAMCLLAASLSEYVLLFGTALGSPRHSGRYWAEISDTIISGTFHQWREGTTKSEVFYPGETVVHGPGEATAVEWGPNTWMVEYGRGVIPSTLGFALADTVFSTQDFLTLFYTLRVYARALQLELTTYLFGQDP | – | binds | –
